Measurements as given in PMC12151148.

Key:
AGS3-TPR (1–405) (mouse) = test: ITC; 25°C; 50 mM Tris (pH 8.0), NaCl raised to 300 mM for AGS3-TPR or AGS3-L, 1 mM EDTA; one protein (0.2 mM) injected into another (0.02 mM); one-site binding model
[1] = target: LGN-GL1234 (483–650) (mouse); test: ITC; 25°C; 50 mM Tris (pH 8.0), 100 mM NaCl, 1 mM EDTA; one protein (0.2 mM) injected into another (0.02 mM); one-site binding model
FL-LGN (mouse) = test: as above
FL-AGS3 (mouse) = test: as above

Chain of Gαi3⋅GDP (P08754 whole entry): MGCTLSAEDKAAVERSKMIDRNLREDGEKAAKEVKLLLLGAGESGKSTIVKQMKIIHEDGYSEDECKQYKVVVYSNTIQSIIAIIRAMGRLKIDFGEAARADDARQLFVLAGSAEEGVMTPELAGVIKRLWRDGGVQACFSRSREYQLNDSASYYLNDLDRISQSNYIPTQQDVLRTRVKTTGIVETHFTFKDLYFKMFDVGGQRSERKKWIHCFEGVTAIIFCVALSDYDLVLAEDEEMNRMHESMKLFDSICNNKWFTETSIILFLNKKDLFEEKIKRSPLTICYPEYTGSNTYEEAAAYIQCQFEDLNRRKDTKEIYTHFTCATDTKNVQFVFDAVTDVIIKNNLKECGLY

Substance | Kd (AGS3-TPR (1–405) (mouse)) [nM] | stoichiometry N (Gαi3⋅GDP per GoLoco domain) [1] | Kd (FL-LGN (mouse)) [nM] | Kd (FL-AGS3 (mouse)) [nM]
AGS3-GL1234 (470–631) (domain or fragment) | 170 |  |  | 
Gαi3⋅GDP (from UniProt P08754 1-354) (natural protein) |  | 4 | 1170 | 1600
